Results reported in patent US20140142160.

Test system: Ezh2 (native PRC2) (Mus musculus)
Test: pulldown
Details: RIP-seq WT RPKM

Substance | binding signal (Ezh2-/- RPKM 3.27) | binding signal (Ezh2-/- RPKM 0)
Tsix RNA | 10.3 RPKM | –
Xist/RepA endogenous RNA | – | 4.18 RPKM
